System: Escherichia coli TOP10
Assay: shrunken log2 fold change of peptide-encoding DNA abundance (4.5 h post-induction vs induction); higher = less antimicrobial activity (less host growth inhibition)
Conditions: time post-induction: 4.5 h; library: site-saturation at positions 5, 18, 19, 20
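Also: peptides expressed intracellularly from a pBAD plasmid library in pooled LB shake-flask culture, induced with 0.3% L-arabinose, DNA abundance read by NGS, three biological replicates, DESeq2 with apeglm shrinkage.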

Row | Sequence | shrunken log2 fold change
1 | RRIRMRPPRLPRPRPRPDTWPRP | 0.34
2 | RRIRSRPPRLPRPRPRPKSMPRP | -0.269
3 | RRIRERPPRLPRPRPRPVEMPRP | 0.139
4 | RRIRGRPPRLPRPRPRPEFHPRP | 1.85
5 | RRIRWRPPRLPRPRPRPIAQPRP | 0.582
6 | RRIRMRPPRLPRPRPRPSRSPRP | 0.902
7 | RRIRCRPPRLPRPRPRPVPCPRP | 0.177
8 | RRIRCRPPRLPRPRPRPTEEPRP | 0.325
9 | RRIRVRPPRLPRPRPRPVMFPRP | -0.305
10 | RRIRARPPRLPRPRPRPVWYPRP | -0.395
11 | RRIRMRPPRLPRPRPRPSLFPRP | 0.136
12 | RRIRRRPPRLPRPRPRPRCQPRP | 0.385
13 | RRIRPRPPRLPRPRPRPVSHPRP | 0.208
14 | RRIRTRPPRLPRPRPRPPEPPRP | 0.416
15 | RRIRKRPPRLPRPRPRPQIIPRP | 0.0891
16 | RRIRTRPPRLPRPRPRPRESPRP | 0.207
17 | RRIRHRPPRLPRPRPRPLLRPRP | 0.0548
18 | RRIRFRPPRLPRPRPRPYQLPRP | -0.573
19 | RRIRPRPPRLPRPRPRPIWYPRP | -0.0201
20 | RRIRKRPPRLPRPRPRPCRVPRP | 0.0931
21 | RRIRHRPPRLPRPRPRPSTIPRP | -0.0522
22 | RRIRNRPPRLPRPRPRPVTTPRP | 0.171
23 | RRIRMRPPRLPRPRPRPHPLPRP | 0.37
24 | RRIRGRPPRLPRPRPRPMMGPRP | 0.409
25 | RRIRCRPPRLPRPRPRPNSTPRP | -0.76

Row | Sequence | shrunken log2 fold change
26 | RRIRHRPPRLPRPRPRPLNNPRP | -0.684
27 | RRIRWRPPRLPRPRPRPPFQPRP | 0.248
28 | RRIRCRPPRLPRPRPRPWDPPRP | -0.211
29 | RRIRVRPPRLPRPRPRPHKHPRP | -0.483
30 | RRIRCRPPRLPRPRPRPWGKPRP | -0.102
31 | RRIRWRPPRLPRPRPRPLEMPRP | 0.373
32 | RRIRDRPPRLPRPRPRPMMQPRP | 0.0408
33 | RRIRSRPPRLPRPRPRPASWPRP | 0.363
34 | RRIRFRPPRLPRPRPRPLMIPRP | -0.266
35 | RRIRCRPPRLPRPRPRPIVNPRP | -0.239
36 | RRIRSRPPRLPRPRPRPTLRPRP | -0.197
37 | RRIRSRPPRLPRPRPRPAHGPRP | 0.153
38 | RRIRNRPPRLPRPRPRPDTWPRP | -0.213
39 | RRIRIRPPRLPRPRPRPCMAPRP | -0.335
40 | RRIRFRPPRLPRPRPRPEISPRP | -0.048
41 | RRIRGRPPRLPRPRPRPYGVPRP | -0.128
42 | RRIRARPPRLPRPRPRPKTDPRP | 0.876
43 | RRIRQRPPRLPRPRPRPSFWPRP | 0.0712
44 | RRIRWRPPRLPRPRPRPPPKPRP | 0.945
45 | RRIRFRPPRLPRPRPRPCTLPRP | -0.471
46 | RRIRGRPPRLPRPRPRPRKGPRP | 0.148
47 | RRIRQRPPRLPRPRPRPFNKPRP | -0.0963
48 | RRIRFRPPRLPRPRPRPMMWPRP | -0.011
49 | RRIRPRPPRLPRPRPRPHQYPRP | -0.623
50 | RRIRDRPPRLPRPRPRPYLSPRP | -0.102

Row | Sequence | shrunken log2 fold change
51 | RRIRNRPPRLPRPRPRPMRCPRP | -0.123
52 | RRIRWRPPRLPRPRPRPSQGPRP | 0.27
53 | RRIRTRPPRLPRPRPRPICAPRP | 0.0827
54 | RRIRCRPPRLPRPRPRPCVEPRP | -0.0788
55 | RRIRVRPPRLPRPRPRPCRMPRP | -0.0641
56 | RRIRWRPPRLPRPRPRPPYHPRP | -0.106
57 | RRIRVRPPRLPRPRPRPRKKPRP | 0.0671
58 | RRIRARPPRLPRPRPRPVHMPRP | -0.00775
59 | RRIRYRPPRLPRPRPRPCHAPRP | -0.702
60 | RRIRPRPPRLPRPRPRPSHQPRP | 0.189
61 | RRIRSRPPRLPRPRPRPPMQPRP | 0.268
62 | RRIRLRPPRLPRPRPRPKIHPRP | -0.312
63 | RRIRPRPPRLPRPRPRPDNVPRP | 0.115
64 | RRIRLRPPRLPRPRPRPVDWPRP | 0.252
65 | RRIRSRPPRLPRPRPRPNALPRP | -0.0803
66 | RRIRHRPPRLPRPRPRPNNEPRP | -0.724
67 | RRIRFRPPRLPRPRPRPYDCPRP | 0.0187
68 | RRIRLRPPRLPRPRPRPVWEPRP | 0.0556
69 | RRIRGRPPRLPRPRPRPEFPPRP | 0.482
70 | RRIRQRPPRLPRPRPRPKDSPRP | -0.135
71 | RRIRPRPPRLPRPRPRPWTYPRP | -0.0785
72 | RRIRVRPPRLPRPRPRPERMPRP | -0.0652
73 | RRIRKRPPRLPRPRPRPDIAPRP | 1
74 | RRIRVRPPRLPRPRPRPVYLPRP | -0.108
75 | RRIRRRPPRLPRPRPRPMHTPRP | 0.322

Row | Sequence | shrunken log2 fold change
76 | RRIRCRPPRLPRPRPRPNAQPRP | 0.164
77 | RRIRIRPPRLPRPRPRPFIQPRP | -0.551
78 | RRIRYRPPRLPRPRPRPMTRPRP | -0.139
79 | RRIRGRPPRLPRPRPRPQQNPRP | 0.383
80 | RRIRHRPPRLPRPRPRPIWQPRP | -0.123
81 | RRIRGRPPRLPRPRPRPVLFPRP | 0.752
82 | RRIRIRPPRLPRPRPRPSMFPRP | -0.801
83 | RRIRVRPPRLPRPRPRPSKSPRP | -0.172
84 | RRIRFRPPRLPRPRPRPDKIPRP | -0.0546
85 | RRIRIRPPRLPRPRPRPVLIPRP | -0.469
86 | RRIRPRPPRLPRPRPRPGQHPRP | 0.0653
87 | RRIRCRPPRLPRPRPRPLVWPRP | 0.207
88 | RRIRMRPPRLPRPRPRPHPIPRP | -0.116
89 | RRIRTRPPRLPRPRPRPTEVPRP | -0.199
90 | RRIRSRPPRLPRPRPRPNFAPRP | 0.245
91 | RRIRPRPPRLPRPRPRPWERPRP | 0.0097
92 | RRIRLRPPRLPRPRPRPCKFPRP | -0.463
93 | RRIRVRPPRLPRPRPRPYDKPRP | -1.05
94 | RRIRWRPPRLPRPRPRPRFCPRP | 0.234
95 | RRIRQRPPRLPRPRPRPSVGPRP | 0.119
96 | RRIRYRPPRLPRPRPRPTYDPRP | -0.73
97 | RRIRDRPPRLPRPRPRPREMPRP | 0.00815
98 | RRIRHRPPRLPRPRPRPLWYPRP | -0.923
99 | RRIRNRPPRLPRPRPRPDGWPRP | 0.235
100 | RRIRRRPPRLPRPRPRPYMDPRP | -0.138

Row | Sequence | shrunken log2 fold change
101 | RRIRHRPPRLPRPRPRPVLGPRP | 0.463
102 | RRIRDRPPRLPRPRPRPQPIPRP | 0.152
103 | RRIRHRPPRLPRPRPRPEPPPRP | 0.545
104 | RRIRQRPPRLPRPRPRPWEFPRP | -0.123
105 | RRIRHRPPRLPRPRPRPAGLPRP | 0.269
106 | RRIRERPPRLPRPRPRPTVDPRP | -0.0352
107 | RRIRTRPPRLPRPRPRPRVQPRP | -0.2
108 | RRIRDRPPRLPRPRPRPHVAPRP | -0.0272
109 | RRIRCRPPRLPRPRPRPSFGPRP | -0.496
110 | RRIRFRPPRLPRPRPRPKPLPRP | 0.433
111 | RRIRHRPPRLPRPRPRPLKWPRP | -0.0708
112 | RRIRCRPPRLPRPRPRPDREPRP | 0.0186
113 | RRIRTRPPRLPRPRPRPQHRPRP | -0.0713
114 | RRIRGRPPRLPRPRPRPENVPRP | 0.328
115 | RRIRDRPPRLPRPRPRPPKEPRP | -0.2
116 | RRIRSRPPRLPRPRPRPPNNPRP | -0.404
117 | RRIRIRPPRLPRPRPRPCWAPRP | -0.283
118 | RRIRHRPPRLPRPRPRPCCDPRP | -0.228
119 | RRIRPRPPRLPRPRPRPLWYPRP | -0.496
120 | RRIRVRPPRLPRPRPRPWWVPRP | 0.00127
121 | RRIRARPPRLPRPRPRPYRHPRP | -0.157
122 | RRIRDRPPRLPRPRPRPKISPRP | -0.203
123 | RRIRQRPPRLPRPRPRPSGYPRP | -0.0295
124 | RRIRYRPPRLPRPRPRPWLNPRP | -0.367
125 | RRIRNRPPRLPRPRPRPGFDPRP | 0.189
